B1: FGF18 SEED (HOF3) (other)
light: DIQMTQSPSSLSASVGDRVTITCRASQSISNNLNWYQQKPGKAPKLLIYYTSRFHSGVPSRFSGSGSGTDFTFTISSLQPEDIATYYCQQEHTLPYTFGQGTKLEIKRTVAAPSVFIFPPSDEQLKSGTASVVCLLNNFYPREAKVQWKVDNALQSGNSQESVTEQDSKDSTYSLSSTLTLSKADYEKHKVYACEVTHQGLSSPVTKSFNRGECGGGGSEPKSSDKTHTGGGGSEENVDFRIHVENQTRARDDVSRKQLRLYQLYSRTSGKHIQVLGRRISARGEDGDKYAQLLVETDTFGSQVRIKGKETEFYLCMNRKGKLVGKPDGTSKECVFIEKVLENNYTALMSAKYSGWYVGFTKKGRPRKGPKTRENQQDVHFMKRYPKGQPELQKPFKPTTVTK
heavy: QVQLQESGPGLVKPSETLSLTCTVSGFSLIGYDLNWIRQPPGKGLEWIGIIWGDGTTDYNSAVKSRVTISKDTSKNQFSLKLSSVTAADTAVYYCARGGYWYATSYYFDYWGQGTLVTVSSASTKGPSVFPLAPSSKSTSGGTAALGCLVKDYFPEPVTVSWNSGALTSGVHTFPAVLQSSGLYSLSSVVTVPSSSLGTQTYICNVNHKPSNTKVDKKVEPKSC
B2: FGF18 SEED (HO110) (other)
chain: EPKSSDKTHTCPPCPAPEAAGGPSVFLFPPKPKDTLMISRTPEVTCVVVDVSHEDPEVKFNWYVDGVEVHNAKTKPREEQYNSTYRVVSVLTVLHQDWLNGKEYKCKVSNKALGAPIEKTISKAKGQPREPQVYTLPPPSEELALNELVTLTCLVKGFYPSDIAVEWLQGSQELPREKYLTWAPVLDSDGSFFLYSILRVAAEDWKKGDTFSCSVMHEALHNRFTQKSLDRSPGKEPKSSDKTHTEENVDFRIHVENQTRARDDVSRKQLRLYQLYSRTSGKHIQVLGRRISARGEDGDKYAQLLVETDTFGSQVRIKGKETEFYLCMNRKGKLVGKPDGTSKECVFIEKVLENNYTALMSAKYSGWYVGFTKKGRPRKGPKTRENQQDVHFMKRYPKGQPELQKPFKYTTVTK
heavy: QVQLQESGPGLVKPSETLSLTCTVSGFSLIGYDLNWIRQPPGKGLEWIGIIWGDGTTDYNSAVKSRVTISKDTSKNQFSLKLSSVTAADTAVYYCARGGYWYATSYYFDYWGQGTLVTVSSASTKGPSVFPLAPSSKSTSGGTAALGCLVKDYFPEPVTVSWNSGALTSGVHTFPAVLQSSGLYSLSSVVTVPSSSLGTQTYICNVNHKPSNTKVDKKVEPKSCDKTHTCPPCPAPEAAGGPSVFLFPPKPKDTLMISRTPEVTCVVVDVSHEDPEVKFNWYVDGVEVHNAKTKPREEQYNSTYRVVSVLTVLHQDWLNGKEYKCKVSNKALGAPIEKTISKAKGQPREPQVYTLPPPSEELALNELVTLTCLVKGFYPSDIAVEWLQGSQELPREKYLTWAPVLDSDGSFFLYSILRVAAEDWKKGDTFSCSVMHEALHNRFTQKSLDRSPGK
light: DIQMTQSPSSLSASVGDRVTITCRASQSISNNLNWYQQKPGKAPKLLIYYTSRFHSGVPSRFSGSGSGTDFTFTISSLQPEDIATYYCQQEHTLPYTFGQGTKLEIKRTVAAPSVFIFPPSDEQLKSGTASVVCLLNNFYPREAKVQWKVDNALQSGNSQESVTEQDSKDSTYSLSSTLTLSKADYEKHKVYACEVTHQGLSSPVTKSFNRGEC
B3: FGF18 SEED (HO113) (other)
chain: EPKSSDKTHTCPPCPAPEAAGGPSVFLFPPKPKDTLMISRTPEVTCVVVDVSHEDPEVKFNWYVDGVEVHNAKTKPREEQYNSTYRVVSVLTVLHQDWLNGKEYKCKVSNKALGAPIEKTISKAKGQPREPQVYTLPPPSEELALNELVTLTCLVKGFYPSDIAVEWLQGSQELPREKYLTWAPVLDSDGSFFLYSILRVAAEDWKKGDTFSCSVMHEALHNRFTQKSLDRSPGKGGGGSEPKSSDKTHTGGGGSEENVDFRIHVENQTRARDDVSRKQLRLYQLYSRTSGKHIQVLGRRISARGEDGDKYAQLLVETDTFGSQVRIKGKETEFYLCMNRKGKLVGKPDGTSKECVFIEKVLENNYTALMSAKYSGWYVGFTKKGRPRKGPKTRENQQDVHFMKRYPKGQPELQKPFKYTTVTKRSRRIRPTHPA
heavy: B2 heavy
light: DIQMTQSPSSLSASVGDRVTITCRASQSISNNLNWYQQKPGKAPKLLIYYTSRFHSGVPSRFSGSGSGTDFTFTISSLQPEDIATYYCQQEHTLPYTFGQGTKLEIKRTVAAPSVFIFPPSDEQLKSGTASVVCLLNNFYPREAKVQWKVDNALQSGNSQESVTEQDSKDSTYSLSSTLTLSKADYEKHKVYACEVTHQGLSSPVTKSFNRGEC
B4: FGF18_scFv fasinumab (LH) (other)
chain: EENVDFRIHVENQTRARDDVSRKQLRLYQLYSRTSGKHIQVLGRRISARGEDGDKYAQLLVETDTFGSQVRIKGKETEFYLCMNRKGKLVGKPDGTSKECVFIEKVLENNYTALMSAKYSGWYVGFTKKGRPRKGPKTRENQQDVHFMKRYPKGQPELQKPFKYTTVTKGGGGSGGGGSGGGGSDIQMTQSPSSLSASAGDRVTITCRASQAIRNDLGWYQQKPGKAPKRLIYAAFNLQSGVPSRFSGSGSGTEFTLTISSLQPEDLASYYCQQYNRYPWTFGQGTKVEIKGGGGSGGGGSGGGGSQVQLVQSGAEVKKPGASVKVSCKVSGFTLTELSIHWVRQAPGKGLEWMGGFDPEDGETIYAQKFQGRVTMTEDTSTDTAYMELTSLRSEDTAVYYCSTIFGVVTNFDNWGQGTLVTVSS
B5: FGF18_scFv tanezumab (LH) (other)
chain: EENVDFRIHVENQTRARDDVSRKQLRLYQLYSRTSGKHIQVLGRRISARGEDGDKYAQLLVETDTFGSQVRIKGKETEFYLCMNRKGKLVGKPDGTSKECVFIEKVLENNYTALMSAKYSGWYVGFTKKGRPRKGPKTRENQQDVHFMKRYPKGQPELQKPFKYTTVTKGGGGSGGGGSGGGGSDIQMTQSPSSLSASVGDRVTITCRASQSISNNLNWYQQKPGKAPKLLIYYTSRFHSGVPSRFSGSGSGTDFTFTISSLQPEDIATYYCQQEHTLPYTFGQGTKLEIKGGGGSGGGGSGGGGSQVQLQESGPGLVKPSETLSLTCTVSGFSLIGYDLNWIRQPPGKGLEWIGIIWGDGTTDYNSAVKSRVTISKDTSKNQFSLKLSSVTAADTAVYYCARGGYWYATSYYFDYWGQGTLVTVSS
B6: FGF18 SEED (HO124) (other)
chain: EENVDFRIHVENQTRARDDVSRKQLRLYQLYSRTSGKHIQVLGRRISARGEDGDKYAQLLVETDTFGSQVRIKGKETEFYLCMNRKGKLVGKPDGTSKECVFIEKVLENNYTALMSAKYSGWYVGFTKKGRPRKGPKTRENQQDVHFMKRYPKGQPELQKPFKYTTVTKGGSGGSGSGSEPKSSDKTHTCPPCPAPEAAGGPSVFLFPPKPKDTLMISRTPEVTCVVVDVSHEDPEVKFNWYVDGVEVHNAKTKPREEQYNSTYRVVSVLTVLHQDWLNGKEYKCKVSNKALGAPIEKTISKAKGQPREPQVYTLPPPSEELALNELVTLTCLVKGFYPSDIAVEWLQGSQELPREKYLTWAPVLDSDGSFFLYSILRVAAEDWKKGDTFSCSVMHEALHNRFTQKSLDRSPGK
heavy: QVQLQESGPGLVKPSETLSLTCTVSGFSLIGYDLNWIRQPPGKGLEWIGIIWGDGTTDYNSAVKSRVTISKDTSKNQFSLKLSSVTAADTAVYYCARGGYWYATSYYFDYWGQGTLVTVSSASTKGPSVFPLAPSSKSTSGGTAALGCLVKDYFPEPVTVSWNSGALTSGVHTFPAVLQSSGLYSLSSVVTVPSSSLGTQTYICNVNHKPSNTKVDKKVEPKSCDKTHTCPPCPAPEAAGGPSVFLFPPKPKDTLMISRTPEVTCVVVDVSHEDPEVKFNWYVDGVEVHNAKTKPREEQYNSTYRVVSVLTVLHQDWLNGKEYKCKVSNKALGAPIEKTISKAKGQPFRPEVHLLPPSREEMTKNQVSLTCLARGFYPKDIAVEWESNGQPENNYKTTPSRQEPSQGTTTFAVTSKLTVDKSRWQQGNVFSCSVMHEALHNHYTQKTISLSPGK
light: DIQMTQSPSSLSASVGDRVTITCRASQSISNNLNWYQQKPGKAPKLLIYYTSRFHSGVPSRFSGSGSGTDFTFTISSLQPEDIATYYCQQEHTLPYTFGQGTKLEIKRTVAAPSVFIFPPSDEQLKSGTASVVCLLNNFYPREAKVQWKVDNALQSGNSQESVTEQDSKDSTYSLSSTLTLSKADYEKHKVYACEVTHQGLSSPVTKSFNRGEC
B7: FGF18 SEED (HO114) (other)
heavy: B6 heavy
chain: EPKSSDKTHTCPPCPAPEAAGGPSVFLFPPKPKDTLMISRTPEVTCVVVDVSHEDPEVKFNWYVDGVEVHNAKTKPREEQYNSTYRVVSVLTVLHQDWLNGKEYKCKVSNKALGAPIEKTISKAKGQPREPQVYTLPPPSEELALNELVTLTCLVKGFYPSDIAVEWLQGSQELPREKYLTWAPVLDSDGSFFLYSILRVAAEDWKKGDTFSCSVMHEALHNRFTQKSLDRSPGK
light: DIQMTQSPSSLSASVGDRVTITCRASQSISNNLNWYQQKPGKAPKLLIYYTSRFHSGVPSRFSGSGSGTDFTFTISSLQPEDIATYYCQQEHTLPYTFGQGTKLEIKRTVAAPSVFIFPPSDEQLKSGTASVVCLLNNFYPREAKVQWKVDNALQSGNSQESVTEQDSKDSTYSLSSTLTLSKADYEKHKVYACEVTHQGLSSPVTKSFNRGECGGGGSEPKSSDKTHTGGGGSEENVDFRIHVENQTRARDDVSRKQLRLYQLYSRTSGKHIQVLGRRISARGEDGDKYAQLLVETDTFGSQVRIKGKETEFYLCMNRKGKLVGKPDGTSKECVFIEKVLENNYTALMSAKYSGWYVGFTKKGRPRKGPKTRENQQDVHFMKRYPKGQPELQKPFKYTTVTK

Target: NGF
Sequence (P01138 122-241): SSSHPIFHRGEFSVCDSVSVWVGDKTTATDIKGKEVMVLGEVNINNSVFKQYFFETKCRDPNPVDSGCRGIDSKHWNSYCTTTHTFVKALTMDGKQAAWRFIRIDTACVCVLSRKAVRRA
Experiment: cell-based or functional assay

Point of comparison: B1, “anti-NGF IC50 (nM), U2OS TrkA_p75 assay; construct from expiCHO-S” value 0.98 nM. Against it:
- B2 — within 1.5-fold, 0.89 nM
- B3 — within 1.5-fold, 0.95 nM
- B6 — within 1.5-fold, 0.89 nM
- B7 — within 1.5-fold, 0.88 nM

Point of comparison: B4, “anti-NGF IC50 (nM), U2OS TrkA_p75 assay; construct from HEK293” value 0.62 nM. Against it:
- B5 — within 1.5-fold, 0.43 nM

Target: FGFR3
Experiment: cell-based or functional assay

Point of comparison: B3, “FGF18 EC50 (nM), BaF3/FGFR3 assay; construct from expiCHO-S” value 0.1 nM. Against it:
- B1 — 2-fold lower, 0.05 nM
- B2 — 5-fold lower, 0.02 nM
- B6 — within 1.5-fold, 0.07 nM
- B7 — 5-fold lower, 0.02 nM

Point of comparison: B5, “FGF18 EC50 (nM), BaF3/FGFR3 assay; construct from HEK293” value 0.16 nM. Against it:
- B4 — 2.7-fold lower, 0.06 nM

— US20200299347A1 (Merck KGaA, published 2020)
